Laboratory results published in US20220098591, “STEM-LOOP COMPOSITIONS AND METHODS FOR INHIBITING VASCULAR ENDOTHELIAL GROWTN FACTOR” (DRIVE THERAPEUTICS LLC, published 2022).

What follows are binders tested against T1, VEGF-A121 (Homo sapiens, UniProt P15692 SEQ:1-121) (assay: competition; TR-FRET). Details: tags: glycan-biotinylated for SPR/FRET/AlphaLISA; Acro BioSystems, Biolegend; chain copies: 2 (stated).
Target sequence in this assay (P15692 other isoform, or with tags, fused parts or gaps): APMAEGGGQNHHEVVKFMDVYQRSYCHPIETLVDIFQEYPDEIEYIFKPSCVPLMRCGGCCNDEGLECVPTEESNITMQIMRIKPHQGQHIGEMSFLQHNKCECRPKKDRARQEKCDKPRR

Row | Binder | binding result
1 | CGACCCGCGCGGAGGGGUUUCAUUAUCCCGUUUGUCG (ssRNA, G 2'-F except 2'-OMe-G as X in CXAC-Sp3-CCGCGCGGAGGGXUUUCAUUAUCCCGUUUXUCX; A,C,U 2'-OMe; Sp3 joins the two parts; 5' C6NH2; 3' idT) [Aptamer 234] | binds
2 | AGGCCGAACCGCGCGGAGGGGUUUCAUUAUCCCGUUUUUCGGCUU (ssRNA, all G 2'-F; A,C,U 2'-OMe; Sp3 joins the two parts; 5' C6NH2; 3' idT) [Aptamer 137] | binds
3 | AGGCCGCUCCGCGCGGAGGGGUUUCAUUAUCCCGUUUAGCGGCUU (ssRNA, all G 2'-F; A,C,U 2'-OMe; Sp3 joins the two parts; 5' C6NH2; 3' idT) [Aptamer 144] | binds
4 | AGGCCGUACCGCGCGGAGGGGUUUCAUUAUCCCGUUUUACGGCUU (ssRNA, all G 2'-F; A,C,U 2'-OMe; Sp3 joins the two parts; 5' C6NH2; 3' idT) [Aptamer 139] | binds
5 | AGGCCGUCCCGCGCGGAGGGGUUUCAUUAUCCCGUUUGACGGCUU (ssRNA, all G 2'-F; A,C,U 2'-OMe; Sp3 joins the two parts; 5' C6NH2; 3' idT) [Aptamer 142] | binds
6 | AGGCCGCACCGCGCGGAGGGGUUUCAUUAUCCCGUUUUGCGGCUU (ssRNA, all G 2'-F; A,C,U 2'-OMe; Sp3 joins the two parts; 5' C6NH2; 3' idT) [Aptamer 143] | binds
7 | AGGCCGACCCGCGCGGAGGGGUUUCAUUACCCCGUUUGUCGGCUU (ssRNA, all G 2'-F; A,C,U 2'-OMe; Sp3 joins the two parts; 5' C6NH2; 3' idT) [Aptamer 187] | binds
8 | AGGCCGAUCCGCGCGGAGGGGUUUCAUUAUCCCGUUUAUCGGCUU (ssRNA, all G 2'-F; A,C,U 2'-OMe; Sp3 joins the two parts; 5' C6NH2; 3' idT) [Aptamer 138] | binds

Biological target: T1, VEGF-A121
Assay: competition; TR-FRET
Details: tags: glycan-biotinylated for SPR/FRET/AlphaLISA; Acro BioSystems, Biolegend; chain copies: 2 (stated)
Remark: another data set of the same source
Protocol: (§1) Briefly, for competition TR-FRET, 2-fold dilutions of thermally equilibrated aptamers were made in TR-FRET Buffer (50 mM MOPS, pH 7.4, 125 mM NaCl, 5 mM KCl, 50 μM CHAPS, 0.1 mg/mL BSA, 1 mM CaCl₂, and 1 mM MgCl₂). 5 μL of aptamer or control solution was added to a 15 μL mix of glycan biotinylated […] (5 nM final), ALEXA FLUOR® 647-labeled Aptamer (30 nM final), and Streptavidin-Eu (Perkin Elmer; 2.5 nM final) in a black wall low volume 384 well plate (Greiner). For control, 5 μl of 1000-fold excess of unlabeled parent aptamer or 5 μl TR-FRET buffer alone was added to the mix of ALEXA FLUOR® 647-labeled aptamer, biotin-VEGF-A, and Streptavidin-Eu. The plate was covered with a plate seal and subsequently incubated in the dark for 1 hour at room temperature. The plate was read on a Biotek CYTATION™ 5 plate reader. Samples were excited at 330 nm and fluorescent values were collected at 665 nm. Data analysis was performed by subtracting the background value and plotting as percent inhibition, normalized to baseline in the absence of competitor. The values were fit by [Inhibitor] vs. response-Variable slope (four parameters) using GraphPad Prism Version 7.0 and then normalized to aptamer control to obtain an IC₅₀ relative to parent aptamer. Data is presented as log values of relative IC₅₀.

Row | Binder | binding result | binding signal
9 | AGGCCGCCUCCGCGCGGAGGGGUUCAUUAUCCCGUUUGGCGGCUU (ssRNA, all G 2'-F; A,C,U 2'-OMe; Sp3 joins the two parts; 5' C6NH2; 3' idT) [Aptamer 63] | binds | –
10 | AGGCCGCCUCCGCGCGGAGGGGUUUCAUAUCCCGUUUGGCGGCUU (ssRNA, all G 2'-F; A,C,U 2'-OMe; Sp3 joins the two parts; 5' C6NH2; 3' idT) [Aptamer 66] | binds | –
11 | AGGCCGCCUCCGCGCGGAGGGGUUUCUUAUCCCGUUUGGCGGCUU (ssRNA, all G 2'-F; A,C,U 2'-OMe; Sp3 joins the two parts; 5' C6NH2; 3' idT) [Aptamer 65] | binds | –
12 | AGGCCGCCUCCGCGCGGAGGGGUUUCAUAUCCCGUUUGGCGGCUU (ssRNA, all G 2'-F; A,C,U 2'-OMe; Sp3 joins the two parts; 5' C6NH2; 3' idT) [Aptamer 67] | binds | –
13 | AGGCCGCCUCCGCGCGGAGGGGUUUCAUUUCCCGUUUGGCGGCUU (ssRNA, all G 2'-F; A,C,U 2'-OMe; Sp3 joins the two parts; 5' C6NH2; 3' idT) [Aptamer 68] | – | > 100 fold worse IC50 vs Aptamer 26
14 | CGACCCGCGCGGAGGGGUUUCAUAAUCCCGUUUGUCG (ssRNA, G 2'-F except 2'-OMe-G as X in CXAC-Sp3-CCGCGCGGAGGGXUUUCAUAAUCCCGUUUXUCX; A,C,U 2'-OMe; Sp3 joins the two parts; 5' C6NH2; 3' idT) [Aptamer 285] | – | ~10 fold better IC50 vs Aptamer 141
15 | ACCCGCGCGGAGGGGUUUCAUUAUCCCGUUUGU (ssRNA, G 2'-F except 2'-OMe-G as X in AC-Sp3-CCGCGCGGAGGGXUUUCAUUAUCCCGUUUGU; A,C,U 2'-OMe; Sp3 joins the two parts; 5' C6NH2; 3' idT) [Aptamer 276] | – | > 100 fold worse IC50 vs Aptamer 141

Biological target: T1, VEGF-A121
Assay: competition; TR-FRET
Details: tags: glycan-biotinylated for SPR/FRET/AlphaLISA; Acro BioSystems, Biolegend; chain copies: 2 (stated)
Remark: another data set of the same source
Protocol: as §1
Activity of each of these variants were tested using a time resolved competition TR-FRET assay, as described in Example 7, in which a labeled parent was competed with increasing concentrations of unlabeled variants for binding to VEGF-A₁₂₁.

Row | Binder | binding result | binding signal
16 | AGGCCGCAUCCGCGCGGAGGGGUUUCAUUAUCCCGUUUUGCGGCUU (ssRNA, all G 2'-F; A,C,U 2'-OMe; 5' C6NH2; 3' idT) [Aptamer 122] | binds | –
17 | AGGCCGCCUCCGCGGGGAGGGGUUUCAUUAUCCCGUUUGGCGGCUU (ssRNA, all G 2'-F; A,C,U 2'-OMe; 5' C6NH2; 3' idT) [Aptamer 159] | – | > 100 fold worse IC50 vs Aptamer 26
18 | AGGCCGCCUCCGCGCGGAGCGGUUUCAUUAUCGCGUUUGGCGGCUU (ssRNA, all G 2'-F; A,C,U 2'-OMe; 5' C6NH2; 3' idT) [Aptamer 117] | – | > 100 fold worse IC50 vs Aptamer 26
19 | AGGCCGACUCCGCGCGGAGGGGUUUCAUUAUCCCGUUUGUCGGCUU (ssRNA, all G 2'-F; A,C,U 2'-OMe; 5' C6NH2; 3' idT) [Aptamer 125] | binds | –
20 | AGGCCGCCUCCACGCGGAGGGGUUUCAUUAUCCCGUUUGGCGGCUU (ssRNA, all G 2'-F; A,C,U 2'-OMe; 5' C6NH2; 3' idT) [Aptamer 149] | – | > 100 fold worse IC50 vs Aptamer 26
21 | AGGCCGCCUCCGCACGGAGGGGUUUCAUUAUCCCGUUUGGCGGCUU (ssRNA, all G 2'-F; A,C,U 2'-OMe; 5' C6NH2; 3' idT) [Aptamer 155] | – | > 100 fold worse IC50 vs Aptamer 26
22 | AGGCCGCCUCCGCGCGGAGGCGUUUCAUUACGCCGUUUGGCGGCUU (ssRNA, all G 2'-F; A,C,U 2'-OMe; 5' C6NH2; 3' idT) [Aptamer 132] | – | > 100 fold worse IC50 vs Aptamer 26
23 | AGGCCGCCUCCGCGUGGAGGGGUUUCAUUAUCCCGUUUGGCGGCUU (ssRNA, all G 2'-F; A,C,U 2'-OMe; 5' C6NH2; 3' idT) [Aptamer 160] | – | > 100 fold worse IC50 vs Aptamer 26
24 | AGGCCGCCUCCGCGCGGAGGUGUUUCAUUACACCGUUUGGCGGCUU (ssRNA, all G 2'-F; A,C,U 2'-OMe; 5' C6NH2; 3' idT) [Aptamer 130] | – | > 100 fold worse IC50 vs Aptamer 26
25 | AGGCCGCCUCCGCGCGGAGGAGUUUCAUUACUCCGUUUGGCGGCUU (ssRNA, all G 2'-F; A,C,U 2'-OMe; 5' C6NH2; 3' idT) [Aptamer 131] | – | > 100 fold worse IC50 vs Aptamer 26
26 | AGGCCGCCUCCGCGCGGAGGGGUUUCAUUAUCCCGCUUGGCGGCUU (ssRNA, all G 2'-F; A,C,U 2'-OMe; 5' C6NH2; 3' idT) [Aptamer 166] | binds | –
27 | AGGCCGCUUCCGCGCGGAGGGGUUUCAUUAUCCCGUUUAGCGGCUU (ssRNA, all G 2'-F; A,C,U 2'-OMe; 5' C6NH2; 3' idT) [Aptamer 123] | binds | –
28 | AGGCCGCCGCCGCGCGGAGGGGUUUCAUUAUCCCGUUUGGCGGCUU (ssRNA, all G 2'-F; A,C,U 2'-OMe; 5' C6NH2; 3' idT) [Aptamer 148] | binds | –
29 | AGGCCGCCUCCGCGCGGACGGGUUUCAUUAUCCGGUUUGGCGGCUU (ssRNA, all G 2'-F; A,C,U 2'-OMe; 5' C6NH2; 3' idT) [Aptamer 114] | – | > 100 fold worse IC50 vs Aptamer 26
30 | AGGCCGCCUCCGCGCGGCGGGGUUUCAUUAUCCCGUUUGGCGGCUU (ssRNA, all G 2'-F; A,C,U 2'-OMe; 5' C6NH2; 3' idT) [Aptamer 161] | – | > 100 fold worse IC50 vs Aptamer 26
31 | AGGCCGCCUCCGCCCGGAGGGGUUUCAUUAUCCCGUUUGGCGGCUU (ssRNA, all G 2'-F; A,C,U 2'-OMe; 5' C6NH2; 3' idT) [Aptamer 156] | – | > 100 fold worse IC50 vs Aptamer 26

Row | Binder | binding result | binding signal
32 | AGGCCGCCUCCGCGCGGAGGGGUUUCAUUAUCCCCUUUGGCGGCUU (ssRNA, all G 2'-F; A,C,U 2'-OMe; 5' C6NH2; 3' idT) [Aptamer 163] | – | > 100 fold worse IC50 vs Aptamer 26
33 | AGGCCGCCUCCGCGCGGAGGGGUUUCAUUAUCCCAUUUGGCGGCUU (ssRNA, all G 2'-F; A,C,U 2'-OMe; 5' C6NH2; 3' idT) [Aptamer 162] | – | > 100 fold worse IC50 vs Aptamer 26
34 | AGGCCGCCACCGCGCGGAGGGGUUUCAUUAUCCCGUUUGGCGGCUU (ssRNA, all G 2'-F; A,C,U 2'-OMe; 5' C6NH2; 3' idT) [Aptamer 146] | – | ~3 fold better IC50 vs Aptamer 26
35 | AGGCCGUCUCCGCGCGGAGGGGUUUCAUUAUCCCGUUUGACGGCUU (ssRNA, all G 2'-F; A,C,U 2'-OMe; 5' C6NH2; 3' idT) [Aptamer 126] | binds | –
36 | AGGCCGCCUCCGCGAGGAGGGGUUUCAUUAUCCCGUUUGGCGGCUU (ssRNA, all G 2'-F; A,C,U 2'-OMe; 5' C6NH2; 3' idT) [Aptamer 158] | – | > 100 fold worse IC50 vs Aptamer 26
37 | AGGCCGCCUCCGCUCGGAGGGGUUUCAUUAUCCCGUUUGGCGGCUU (ssRNA, all G 2'-F; A,C,U 2'-OMe; 5' C6NH2; 3' idT) [Aptamer 157] | – | > 100 fold worse IC50 vs Aptamer 26
38 | AGGCCGCCUCCCCGCGGAGGGGUUUCAUUAUCCCGUUUGGCGGCUU (ssRNA, all G 2'-F; A,C,U 2'-OMe; 5' C6NH2; 3' idT) [Aptamer 150] | – | > 100 fold worse IC50 vs Aptamer 26
39 | AGGCCGCCUCCGCGCGGAAGGGUUUCAUUAUCCUGUUUGGCGGCUU (ssRNA, all G 2'-F; A,C,U 2'-OMe; 5' C6NH2; 3' idT) [Aptamer 112] | – | > 100 fold worse IC50 vs Aptamer 26
40 | AGGCCGCCUCCGCGCGGAUGGGUUUCAUUAUCCAGUUUGGCGGCUU (ssRNA, all G 2'-F; A,C,U 2'-OMe; 5' C6NH2; 3' idT) [Aptamer 113] | – | > 100 fold worse IC50 vs Aptamer 26
41 | AGGCCGCCUCAGCGCUGAGGGGUUUCAUUAUCCCGUUUGGCGGCUU (ssRNA, all G 2'-F; A,C,U 2'-OMe; 5' C6NH2; 3' idT) [Aptamer 178] | binds | –
42 | AGGCCGCCUCCGCGCGGAGGGCUUUCAUUAGCCCGUUUGGCGGCUU (ssRNA, all G 2'-F; A,C,U 2'-OMe; 5' C6NH2; 3' idT) [Aptamer 127] | – | > 100 fold worse IC50 vs Aptamer 26
43 | AGGCCGCCUCCGCGCGGAGGGGUUUCAUUAUCCCUUUUGGCGGCUU (ssRNA, all G 2'-F; A,C,U 2'-OMe; 5' C6NH2; 3' idT) [Aptamer 164] | – | > 100 fold worse IC50 vs Aptamer 26
44 | AGGCCGCCUCCGCGCGGAGUGGUUUCAUUAUCACGUUUGGCGGCUU (ssRNA, all G 2'-F; A,C,U 2'-OMe; 5' C6NH2; 3' idT) [Aptamer 116] | – | > 100 fold worse IC50 vs Aptamer 26
45 | AGGCCGCCUCCGCGCGGAGGUCUUUCAUUAGACCGUUUGGCGGCUU (ssRNA, all G 2'-F; A,C,U 2'-OMe; 5' C6NH2; 3' idT) [Aptamer 129] | – | > 100 fold worse IC50 vs Aptamer 26
46 | AGGCCGCCUCCGCGCGGAGGGGUUCAUUUCCCGUUUGGCGGCUU (ssRNA, all G 2'-F; A,C,U 2'-OMe; 5' C6NH2; 3' idT) [Aptamer 108] | – | > 100 fold worse IC50 vs Aptamer 26
